Reference: IntAct's records for PubMed 12023880

B1: Tyrosine-protein phosphatase non-receptor type 1 (Homo sapiens), P18031 (parent)
chain: MEMEKEFEQIDKSGSWAAIYQDIRHEASDFPCRVAKLPKNKNRNRYRDVSPFDHSRIKLHQEDNDYINASLIKMEEAQRSYILTQGPLPNTCGHFWEMVWEQKSRGVVMLNRVMEKGSLKCAQYWPQKEEKEMIFEDTNLKLTLISEDIKSYYTVRQLELENLTTQETREILHFHYTTWPDFGVPESPASFLNFLFKVRESGSLSPEHGPVVVHCSAGIGRSGTFCLADTCLLLMDKRKDPSSVDIKKVLLEMRKFRMGLIQTADQLRFSYLAVIEGAKFIMGDSSVQDQWKELSHEDLEPPPEHIPPPPRPPKRILEPHNGKCREFFPNHQWVKEETQEDKDCPIKEEKGSPLNAAPYGIESMSQDTEVRSRVVGGSLRGAQAASPAKGEPSLPEKDEDHALSYWKPFLVNMCVATVLTAGAYLCYRFLFNSNT
partner: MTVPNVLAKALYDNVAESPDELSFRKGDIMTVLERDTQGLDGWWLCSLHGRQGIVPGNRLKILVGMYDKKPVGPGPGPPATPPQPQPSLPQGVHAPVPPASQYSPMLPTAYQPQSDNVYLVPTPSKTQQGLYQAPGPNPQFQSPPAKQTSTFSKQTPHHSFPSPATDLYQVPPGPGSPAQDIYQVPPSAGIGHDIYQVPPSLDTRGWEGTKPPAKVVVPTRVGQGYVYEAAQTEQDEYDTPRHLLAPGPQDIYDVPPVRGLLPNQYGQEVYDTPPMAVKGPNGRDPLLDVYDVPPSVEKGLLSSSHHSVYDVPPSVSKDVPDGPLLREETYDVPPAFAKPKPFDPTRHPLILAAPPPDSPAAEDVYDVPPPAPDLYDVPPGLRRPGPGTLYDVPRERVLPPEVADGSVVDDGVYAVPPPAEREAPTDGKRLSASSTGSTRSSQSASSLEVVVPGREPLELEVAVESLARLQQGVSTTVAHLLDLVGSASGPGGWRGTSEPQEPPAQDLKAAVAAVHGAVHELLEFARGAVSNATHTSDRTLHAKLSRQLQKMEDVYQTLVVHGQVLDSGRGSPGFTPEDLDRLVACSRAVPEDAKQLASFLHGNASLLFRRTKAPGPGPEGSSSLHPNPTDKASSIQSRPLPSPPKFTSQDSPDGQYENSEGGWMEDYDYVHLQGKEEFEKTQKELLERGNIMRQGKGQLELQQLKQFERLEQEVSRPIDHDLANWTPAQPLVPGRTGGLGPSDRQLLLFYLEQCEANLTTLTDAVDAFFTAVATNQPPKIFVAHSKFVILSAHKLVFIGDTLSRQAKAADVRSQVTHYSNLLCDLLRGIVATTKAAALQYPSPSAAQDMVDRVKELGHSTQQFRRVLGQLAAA
B2: Tyrosine-protein phosphatase non-receptor type 1 (Homo sapiens), P18031 (parent)
chain: B1 chain

Variants of: B1
Conditions: with bcar1_mouse Bcar1, Q61140

Variant | effect of a mutation on the interaction
P309A;P310A | disrupting interaction

Variants of: B2
Conditions: with src_rat Src

Variant | effect of a mutation on the interaction
P309A;P310A | disrupting interaction

Variants of: B2
Conditions: with grb2_rat Grb2, P62994
grb2_rat Grb2, P62994, sequence (P62994 whole entry, looked up): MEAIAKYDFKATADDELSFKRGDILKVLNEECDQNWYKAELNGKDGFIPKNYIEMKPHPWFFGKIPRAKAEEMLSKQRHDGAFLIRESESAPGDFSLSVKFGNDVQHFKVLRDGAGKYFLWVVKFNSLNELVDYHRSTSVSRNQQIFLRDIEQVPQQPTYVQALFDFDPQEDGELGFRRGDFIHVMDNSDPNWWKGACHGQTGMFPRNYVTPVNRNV

Variant | effect of a mutation on the interaction
P309A;P310A | disrupting interaction

Variants of: B2
Conditions: with crk_rat Crk

Variant | effect of a mutation on the interaction
P309A;P310A | disrupting interaction

Variants of: B2
Conditions: with insr_rat Insr

Variant | effect of a mutation on the interaction
Y152F;Y153F | disrupting interaction
